Measurements as given in the supplement of paper PMC7125110.
± gives the standard error. Variants at the floor of the assay were thinned out.

B1: glmS ribozyme (parent)
chain: AUAAAAGCGCCAGAACUACAGAAAUGUAGUUGACGAGGAGGAGGUUUAUCGAAUUUUCGGCGGAUGCCUCCAAA

Tests used:
Details in all cases: with glucosamine-6-phosphate
glucosamine-6-phosphate [1] = variants of: B1; assay: self-cleavage kobs at 640 uM GlcN6P; higher = faster cleavage; RNA array
Procedure, shortened: (§1)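 kcat and KM were obtained from weighted Michaelis–Menten fits across concentrations of kobs values. Those came from one- or two-exponential decay fits to per-tile medians normalised to baseline and to non-cleaving reference variants. The variants were barcoded ribozymes transcribed in situ by E. coli RNA polymerase on sequenced MiSeq chips and tracked through a hybridised Cy3 probe at 37 °C, with 40 μM to 10 mM glucosamine-6-phosphate in HEPES/KCl/Mg(OAc)2 buffer flowed in.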

glucosamine-6-phosphate [2] = variants of: B1; assay: self-cleavage kobs at 2500 uM GlcN6P; higher = faster cleavage; RNA array
Procedure, shortened: as §1

glucosamine-6-phosphate [3] = variants of: B1; assay: self-cleavage kobs at 10000 uM GlcN6P; higher = faster cleavage; RNA array
Procedure, shortened: as §1

Variant	self-cleavage kobs at 640 uM GlcN6P (glucosamine-6-phosphate [1])	self-cleavage kobs at 2500 uM GlcN6P (glucosamine-6-phosphate [2])	self-cleavage kobs at 10000 uM GlcN6P (glucosamine-6-phosphate [3])
C8G G35A C70G	< 1e-05 s⁻¹	–	–
G7U G9U G43U	< 1e-05 s⁻¹	< 1e-05 s⁻¹	–
G7A A39C	< 1e-05 s⁻¹	< 1e-05 s⁻¹	–
G7U C68G	0.000534 ± 0.00015 s⁻¹	–	–
A6G A36C G37U G40A C61A U65A	< 1e-05 s⁻¹	< 1e-05 s⁻¹	–
G9U G40C C50G	< 1e-05 s⁻¹	< 1e-05 s⁻¹	–
G9U A15G U55A	< 1e-05 s⁻¹	–	–
G7U C11U A12C A15C A48G	< 1e-05 s⁻¹	–	–
A6G A33G U47A	< 1e-05 s⁻¹	–	–
A6G C50U C61U	< 1e-05 s⁻¹	< 1e-05 s⁻¹	–
A6C U54G C70U	6.45e-05 ± 2.2e-05 s⁻¹	–	–
G7U C10G G13C G44A U69G	< 1e-05 s⁻¹	–	–
G9C A12C C58U	< 1e-05 s⁻¹	< 1e-05 s⁻¹	–
C8G C50U A53U U55G	< 1e-05 s⁻¹	–	–
C8G G13U A33U U57G	< 1e-05 s⁻¹	< 1e-05 s⁻¹	–
G9A G29C G32A G38U	< 1e-05 s⁻¹	–	–
G9C G37C U46C C50G	< 1e-05 s⁻¹	< 1e-05 s⁻¹	–
A6U A39G A48G	< 1e-05 s⁻¹	< 1e-05 s⁻¹	–
G9A U46C C67U	< 1e-05 s⁻¹	–	–
C8U G32A C34G	< 1e-05 s⁻¹	< 1e-05 s⁻¹	–
G9U G40U U47G U65A	< 1e-05 s⁻¹	< 1e-05 s⁻¹	–
C8A U47C G51A	< 1e-05 s⁻¹	< 1e-05 s⁻¹	–

Variant	self-cleavage kobs at 640 uM GlcN6P (glucosamine-6-phosphate [1])	self-cleavage kobs at 2500 uM GlcN6P (glucosamine-6-phosphate [2])	self-cleavage kobs at 10000 uM GlcN6P (glucosamine-6-phosphate [3])
G7C G32C G59A	< 1e-05 s⁻¹	–	–
G7A G32A U49G	< 1e-05 s⁻¹	–	–
A6G G9U	< 1e-05 s⁻¹	< 1e-05 s⁻¹	< 1e-05 s⁻¹
G9C G29A G62A	< 1e-05 s⁻¹	–	–
C8G G32C G38C U54G	< 1e-05 s⁻¹	< 1e-05 s⁻¹	< 1e-05 s⁻¹
A6U U45C C71U	< 1e-05 s⁻¹	< 1e-05 s⁻¹	–
C8U A15C C16G U30C	< 1e-05 s⁻¹	–	–
C8G G29A G51C G59U	< 1e-05 s⁻¹	–	–
G9A C10G C58U	< 1e-05 s⁻¹	< 1e-05 s⁻¹	–
A6U C11U U31C G40A G44A U55A	< 1e-05 s⁻¹	–	–
G7U C58G C61G	0.000789 ± 0.00019 s⁻¹	–	–
A6G C10U A14G C34U U46G U57A	< 1e-05 s⁻¹	–	–
C8G U31C G38A	< 1e-05 s⁻¹	–	< 1e-05 s⁻¹
G9A A14U	< 1e-05 s⁻¹	< 1e-05 s⁻¹	–
A6G A48U C61U	< 1e-05 s⁻¹	< 1e-05 s⁻¹	–
C8U G43A U54C	< 1e-05 s⁻¹	–	–
G7U G38U G40U	< 1e-05 s⁻¹	–	–
G7U A64U	< 1e-05 s⁻¹	–	< 1e-05 s⁻¹
G9U C70G	< 1e-05 s⁻¹	< 1e-05 s⁻¹	< 1e-05 s⁻¹
A6G G51U U56A C71U	< 1e-05 s⁻¹	–	< 1e-05 s⁻¹
G9C C67A C71U	< 1e-05 s⁻¹	< 1e-05 s⁻¹	–
G7A A39G U49C U69A	< 1e-05 s⁻¹	< 1e-05 s⁻¹	< 1e-05 s⁻¹

Variant	self-cleavage kobs at 640 uM GlcN6P (glucosamine-6-phosphate [1])	self-cleavage kobs at 2500 uM GlcN6P (glucosamine-6-phosphate [2])	self-cleavage kobs at 10000 uM GlcN6P (glucosamine-6-phosphate [3])
G9U G29U C34A G41U U57G G59A	< 1e-05 s⁻¹	< 1e-05 s⁻¹	–
A6G G43U U69G	< 1e-05 s⁻¹	–	–
C8G G66C	< 1e-05 s⁻¹	< 1e-05 s⁻¹	–
G7A A33C G66C	< 1e-05 s⁻¹	–	–
G9U A33C G41U G62C	< 1e-05 s⁻¹	< 1e-05 s⁻¹	–
A6C G38U G40A A48G A52U G63C	< 1e-05 s⁻¹	< 1e-05 s⁻¹	–
C8U C10U U45C	< 1e-05 s⁻¹	< 1e-05 s⁻¹	–
C8G A12U C70U	< 1e-05 s⁻¹	< 1e-05 s⁻¹	–
C8U G9U G13U G41U A42U C50G C68U	< 1e-05 s⁻¹	< 1e-05 s⁻¹	–
C8U G35A U49A	< 1e-05 s⁻¹	–	–
C8U U31G G43A	< 1e-05 s⁻¹	–	–
C8A G35C G66U A72G	< 1e-05 s⁻¹	–	–
G7U C11G A64U	< 1e-05 s⁻¹	< 1e-05 s⁻¹	< 1e-05 s⁻¹
G7U A39G A48U	< 1e-05 s⁻¹	–	–
A6U G35U G43U	< 1e-05 s⁻¹	< 1e-05 s⁻¹	–
A6G U31G A53G	4.09e-05 ± 1.9e-05 s⁻¹	0.000162 ± 3.5e-05 s⁻¹	–
C8U G32C U45C	< 1e-05 s⁻¹	< 1e-05 s⁻¹	–
A6U A15G A48U	< 1e-05 s⁻¹	–	–
A6U G7A G59A	< 1e-05 s⁻¹	–	–
G9A G66U	< 1e-05 s⁻¹	< 1e-05 s⁻¹	–
G7C C11G G41A	< 1e-05 s⁻¹	< 1e-05 s⁻¹	–
C8A A12G G32A	< 1e-05 s⁻¹	–	< 1e-05 s⁻¹

Variant	self-cleavage kobs at 640 uM GlcN6P (glucosamine-6-phosphate [1])	self-cleavage kobs at 2500 uM GlcN6P (glucosamine-6-phosphate [2])	self-cleavage kobs at 10000 uM GlcN6P (glucosamine-6-phosphate [3])
G7A G29U C34U	< 1e-05 s⁻¹	–	–
G7U G32C C34U U55C	< 1e-05 s⁻¹	< 1e-05 s⁻¹	–
C8U U31C U69A	0.00179 ± 0.00081 s⁻¹	–	–
A6U G29C A48U	< 1e-05 s⁻¹	–	–
G7U C58G	< 1e-05 s⁻¹	–	–
A6U C16U U47A	6.84e-05 ± 2.1e-05 s⁻¹	0.000103 ± 3.5e-05 s⁻¹	–
G9U G44C G63U	< 1e-05 s⁻¹	< 1e-05 s⁻¹	–
G9U U30G U31C A39C A64G	< 1e-05 s⁻¹	< 1e-05 s⁻¹	–
A6G A52C C58G G63A G66C	< 1e-05 s⁻¹	< 1e-05 s⁻¹	–
A6U C70A	0.000142 ± 6.1e-05 s⁻¹	2.49e-05 ± 9.6e-06 s⁻¹	–
G9A G38U U57A	< 1e-05 s⁻¹	–	–
A6G G63U A64C C67U U69G	< 1e-05 s⁻¹	< 1e-05 s⁻¹	–
A6G G62U C71G	< 1e-05 s⁻¹	–	–
A6U C34U G40C G59C	< 1e-05 s⁻¹	–	–
G7U G13A A15C A36U G43A C67U	< 1e-05 s⁻¹	< 1e-05 s⁻¹	–
G7A C8U G13U A15C A39C U55G U57A	< 1e-05 s⁻¹	–	–
G9A C16U U30G G38U	< 1e-05 s⁻¹	< 1e-05 s⁻¹	–
G7C G26U G29U U57C A64U U65C	< 1e-05 s⁻¹	–	–
G9A U31G A52C	< 1e-05 s⁻¹	–	–
G7U A15U G44C	< 1e-05 s⁻¹	< 1e-05 s⁻¹	–
G9U C10A	< 1e-05 s⁻¹	< 1e-05 s⁻¹	–
C8U G44U G60U	< 1e-05 s⁻¹	–	–

Variant	self-cleavage kobs at 640 uM GlcN6P (glucosamine-6-phosphate [1])	self-cleavage kobs at 2500 uM GlcN6P (glucosamine-6-phosphate [2])	self-cleavage kobs at 10000 uM GlcN6P (glucosamine-6-phosphate [3])
C8U A33G G38A G59A C70G	5.19e-05 ± 1.9e-05 s⁻¹	–	–
A6U G35A G43U	< 1e-05 s⁻¹	< 1e-05 s⁻¹	–
C8G U31A A39C G44U	< 1e-05 s⁻¹	–	–
C8U G40U G59U C68U	< 1e-05 s⁻¹	–	–
C8G A12U G43A C67A	< 1e-05 s⁻¹	< 1e-05 s⁻¹	–
C8A A53U C58A G59U	< 1e-05 s⁻¹	–	–
G9U U30C C34U C58U G66U C70G	< 1e-05 s⁻¹	–	< 1e-05 s⁻¹
G7C G9U C11G C16G U30G G43U G44U C61U	< 1e-05 s⁻¹	< 1e-05 s⁻¹	< 1e-05 s⁻¹
A6U C8A C50U	< 1e-05 s⁻¹	–	–
G7A A33C A39U	< 1e-05 s⁻¹	–	–
G9U U30C U57A	< 1e-05 s⁻¹	< 1e-05 s⁻¹	–
G9A C16U C58U	< 1e-05 s⁻¹	–	–
A6G G32U G35U G51A	< 1e-05 s⁻¹	–	–
G7C A12C G32A C50A G60U	< 1e-05 s⁻¹	–	–
G7C G41U C67G	< 1e-05 s⁻¹	–	–
G9U U49A C71A	< 1e-05 s⁻¹	–	–
G7C G29C C67G	< 1e-05 s⁻¹	< 1e-05 s⁻¹	–
G9A C11U G29C G35U G59C	< 1e-05 s⁻¹	< 1e-05 s⁻¹	–
C8U G37C A52G	< 1e-05 s⁻¹	–	–
G9U A36G U45C A48C G60U C68G	< 1e-05 s⁻¹	< 1e-05 s⁻¹	< 1e-05 s⁻¹
C8U A33C G35C U56G U65C	< 1e-05 s⁻¹	< 1e-05 s⁻¹	–
A6U G13U G29U C70G	4.98e-05 ± 2.3e-05 s⁻¹	–	–

Variant	self-cleavage kobs at 640 uM GlcN6P (glucosamine-6-phosphate [1])	self-cleavage kobs at 2500 uM GlcN6P (glucosamine-6-phosphate [2])	self-cleavage kobs at 10000 uM GlcN6P (glucosamine-6-phosphate [3])
C8U U46G G51U G66U C70G C71U	< 1e-05 s⁻¹	–	–
G7A G51A C58A	< 1e-05 s⁻¹	< 1e-05 s⁻¹	–
G9C U69G	< 1e-05 s⁻¹	< 1e-05 s⁻¹	< 1e-05 s⁻¹
G9U G38U C61U	< 1e-05 s⁻¹	–	–
G9C C11U U56G G66C	< 1e-05 s⁻¹	–	–
C8G G13U A33U G38A	< 1e-05 s⁻¹	–	–
A6C G38U G62C C70U	< 1e-05 s⁻¹	–	–
G7U G40A G43C	< 1e-05 s⁻¹	< 1e-05 s⁻¹	–
C8G U30A G43U	< 1e-05 s⁻¹	–	–
C8U A39U G40C U56G U57G	< 1e-05 s⁻¹	–	–
C8G G60A C61G	< 1e-05 s⁻¹	< 1e-05 s⁻¹	–
C8A C19A	< 1e-05 s⁻¹	< 1e-05 s⁻¹	–
C8G G40C	< 1e-05 s⁻¹	< 1e-05 s⁻¹	< 1e-05 s⁻¹
G7A A12C U49C G62A	< 1e-05 s⁻¹	< 1e-05 s⁻¹	–
C8U U30A G62C	< 1e-05 s⁻¹	–	–
G7A G13C A14G U69G	< 1e-05 s⁻¹	< 1e-05 s⁻¹	–
G9A C11A A39U G41A A42U C50A U57G	< 1e-05 s⁻¹	< 1e-05 s⁻¹	–
A6U C16U G43U U65G	< 1e-05 s⁻¹	–	–
G7U U46C U65A	< 1e-05 s⁻¹	< 1e-05 s⁻¹	–
G9A C10U A42G A53U	< 1e-05 s⁻¹	< 1e-05 s⁻¹	–
A6C G44A A64G	< 1e-05 s⁻¹	–	–
